According to publication PMC5733570:

Key:
[1] = target: TbTrm140 (3-methylcytosine methyltransferase of Trypanosoma brucei), wild type (T. brucei); experiment: SEC
[2] = target: TbTrm140 N-terminal deletion mutant (TbTrm140 ΔS2-G17) (T. brucei); experiment: SEC

| Substance | stoichiometry N [1] | stoichiometry N [2] |
| --- | --- | --- |
| TbTrm140 (3-methylcytosine methyltransferase of Trypanosoma brucei), wild type (enzyme) | 2 | – |
| TbTrm140 N-terminal deletion mutant (TbTrm140 ΔS2-G17) (enzyme) | – | 2 |
